# According to US20090099091A1 (Stanford University, published 2009):
# Assays:
# Mushroom tyrosinase [1] = target: T1, Mushroom tyrosinase (mushroom, UniProt C7FF04 1-392); assay: cell-based or functional assay
# Mushroom tyrosinase [2] = target: T1, Mushroom tyrosinase; assay: cell-based or functional assay; remark: listed apart in the source
# T1 sequence (C7FF04 1-392): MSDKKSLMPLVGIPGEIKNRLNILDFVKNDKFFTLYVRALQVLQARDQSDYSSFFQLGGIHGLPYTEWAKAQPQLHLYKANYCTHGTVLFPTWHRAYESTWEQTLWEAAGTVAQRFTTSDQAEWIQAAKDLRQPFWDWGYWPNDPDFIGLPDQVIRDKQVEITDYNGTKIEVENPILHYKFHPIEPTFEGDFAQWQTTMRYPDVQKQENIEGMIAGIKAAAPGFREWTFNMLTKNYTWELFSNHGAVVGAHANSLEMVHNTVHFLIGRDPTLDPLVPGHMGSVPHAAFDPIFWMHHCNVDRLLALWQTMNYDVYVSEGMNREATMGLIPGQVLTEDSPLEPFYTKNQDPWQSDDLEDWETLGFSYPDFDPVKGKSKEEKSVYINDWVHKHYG
Binder,"IC50 (inhibition of mushroom tyrosinase, dopachrome absorbance at 475 nM) (Mushroom tyrosinase [1])",IC50 (inhibition of mushroom tyrosinase) (Mushroom tyrosinase [2])
KFEKKFEK [KFEKKFEK (KF peptide)],3600 µM,
YRSRKYSSWY [YRSRKYSSWY (YR peptide)],40 µM,40 µM
